Substrate in this series: Nc1ncnc2c1ncn2[C@@H]1O[C@H](COP(=O)(O)OP(=O)(O)OP(=O)(O)O)[C@@H](O)[C@H]1O
In words: purified protein. It is filed as biochemical, Yarrowia lipolytica. Particulars: 4 mM NAGA, 0.1 M Tris-HCl pH 7.5, 30 °C, mean of two preparations.

B1: YlNag5 (YALI0E20207p), N-acetylglucosamine (NAGA) kinase (Yarrowia lipolytica CLIB122) (protein)
chain: MSMGDDDRAYHHQMSVIVTAANANLPGHGKGPLVSVSSELLTKESHLMYDFERYVARNPSRFNQKVLDNLRIHHTYTRSSLDTLVNEFLAEITPACANRDAPSMLPSKMGSLPNDSLTGSVLSIDIGGSTLRGSMVDLEKMTVTDSVQHLIPDTVKNYSGSDFFDWIVERIMPLVKDCTATIIPIGLSWSFPIFQPHISSGLIQTMGKGYGVADEIINQDLKELFETHFASHGKTVEVGAILNDSVASLVAANYISNAPLCLILGTGINVSALIPKDQLKKTEQDQDKYIVNCEASLFGQCVSKTCWDLELDQALERPGFQPLESLSSGRYLGEICRLILRDLSKTGFLSRPDVGPYELTTAEVADLETADSGELDYVQDIILATSDRSAALASAFITAIYKLTGSDCESPSIAYDGTMVQKYPNFRPRMQQRLREQGLNVTFVAVEEGTVYGSAIACASQLSQ
notes: N-terminal GST fusion (pGEX-4T-2, plasmid pCL151), full-length ORF, expressed in E. coli BL21(DE3), glutathione-Sepharose eluted, tag not reported cut
As to B1, the Michaelis-Menten constant (Km) (commonly the concentration of substrate that gives half-maximal velocity) was found to be 1000 µM.

Source of the values: PMC4376941, “The Gene YALI0E20207g from Yarrowia lipolytica Encodes an N-Acetylglucosamine Kinase Implicated in the Regulated Expression of the Genes from the N-Acetylglucosamine Assimilatory Pathway” (PLoS ONE, 2015).
